The values that follow come from patent publication US20240294638A1 (LES LABORATOIRES SERVIER, published 2024).

The target of experiment [1] is T1, cynomolgus NKG2A and cynomolgus CD94 expressed on transiently transfected CHO-S cells (cynomolgus, UniProt Q68VD2 1-233; Q68VD4 1-179).
T1 construct: whole, on cells
Description: blocking of PE-conjugated HLA-E pentamer binding to transiently transfected CHO-S cells, flow cytometry (percentage binding) [panel B cNKG2A]. The procedure: (§1) CHO-S cells were transiently transfected with constructs for expression of human NKG2A and human CD94, human NKG2C and human CD94, cynomolgus NKG2A and cynomolgus CD94, or cynomolgus NKG2C and cynomolgus CD94. Mock transfected CHO-S cells were included in the assay as negative control. A PE-conjugated HLA-E pentamer was tested for binding to the heterodimers in the presence of anti-human NKG2A antibodies in 3-fold serial dilutions from 10 μg/mL down to 14 ng/mL antibody, and 0 μg/mL antibody. The antibodies were allowed to bind for 30 min at 4° C. prior to the addition of the HLA-E pentamer in a 1:50 dilution. The fluorescence intensity of HLA-E binding to the transfected cells was measured by high throughput flow cytometry (IQue screener, Sartorius). Data were transferred to Excel and graphs were generated using GraphPad Prism® software.
On the technique in general: A flow cytometer gives signals particle by particle.

In experiment [2] the target is T2, I225M (Homo sapiens).
T2 construct: co-expressed on CHO-S cells; also called human NKG2A I225M / human CD94 heterodimer on CHO-S cells
Description: flow cytometry, CHO-S cells transiently transfected with NKG2A variant and CD94, AF647 goat anti-human IgG secondary (MFI) [cont.), panel 24208]. As for the experimental part:
(§2) Six anti-human NKG2A antibodies were tested for binding to the different heterodimers expressed. Antibodies were tested for binding to the transfected cells in 3-fold serial dilutions from 1 μg/mL antibody, and 0 μg/ml antibody, and incubated for 30 min at 4° C. Following a washing step, the cells were incubated with a fluorescent goat anti-human IgG (H+L) secondary antibody (A-21445, Invitrogen) for 30 min at 4° C. in the dark. After a second wash, the cells were tested by high throughput flow cytometry (IQue screener, Sartorius). Data were transferred to Excel and graphs were generated using GraphPad Prism® software. A reference antibody analogue and an isotype control were included for comparison.

The target of experiment [3] is T3, CD94 homodimer (human, UniProt Q13241 32-179, limits assumed).
T3 sequence (looked up): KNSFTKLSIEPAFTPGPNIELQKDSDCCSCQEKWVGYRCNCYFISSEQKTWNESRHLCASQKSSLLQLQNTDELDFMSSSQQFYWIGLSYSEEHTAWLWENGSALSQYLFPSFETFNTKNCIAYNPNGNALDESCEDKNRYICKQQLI
The experiment is described as follows: SPR. As for the experimental part: (§3) Kinetic binding analysis of anti-NKG2A monoclonal antibodies (mAbs) was performed by Surface Plasmon Resonance (SPR) using a Continuous Flow Microspotter (CFM, Wasatch Microfluidics, Salt Lake City, US) combined with an IBIS MX96 SPR instrument (IBIS Technologies, The Netherlands). The extracellular domains (ECDs) of human his-tagged NKG2A, NKG2C and FLAG-tagged CD94 were co-expressed using an Expi293™ expression system and purified by standard Ni-NTA chromatography followed by anti-Flag M2 affinity gel (A2220, Sigma). Binding kinetics were measured by capturing mAbs on a G-a-hu-IgG Fc SensEye® for 15 minutes using the CFM. After spotting, the SensEye® was positioned in the IBIS MX96 biosensor and immobilized mAbs were fixed by SensEye FixIt kit. Kinetic analysis was performed by applying a kinetic titration series injecting increasing concentrations of antigens from 1.6 nM to 400 nM as 2-fold dilutions. After each cycle of antigen injection, the surface was regenerated by 100 mM H₃PO₄, pH 3. Antigen association and dissociation were measured for 15 minutes. The recorded binding responses were fitted to a simple 1:1 binding model with Scrubber 2.0 software for calculation of the on-rate (kₒₙ or kₐ), off-rate (Koff or kd) and affinity (KD) constants. Binding kinetic parameters were measured as an average of three independent measuring points.
The binding affinities and kinetic parameters of the anti-NKG2A mAbs binding to NKG2A/CD94 and NKG2C/CD94 heterodimers are shown in Table 7. […] None of the mAbs bound to CD94 homodimer (data not shown).

Experiment [4] addresses NKG2A on primary human NK cells (human, UniProt P26715 1-233). The experiment is described as follows: cell-based or functional assay.
The target of experiment [5] is T4, human NKG2A and human CD94 expressed on transiently transfected CHO-S cells (human, UniProt Q13241 1-179).
T4 construct: whole, on cells; also called human NKG2A/CD94 heterodimer
Description: flow cytometry, transiently transfected CHO-S cells, AF647 goat anti-human IgG secondary (MFI) [cont.), panel 24135]. As for the experimental part: (§4) CHO-S cells were transiently transfected with human NKG2A and human CD94, human NKG2C and human CD94, cynomolgus NKG2A and cynomolgus CD94 or cynomolgus NKG2C and cynomolgus CD94 constructs. Mock transfected CHO-S cells were included in the assay as a negative control. Antibodies were tested for binding to the transfected cells in 3-fold dilutions from 30 μg/mL down to 0.5 ng/ml antibody, and 0 μg/mL antibody, and incubated for 30 min at 4° C. Following a washing step, the cells were incubated with a fluorescent goat anti-human IgG (H+L) secondary antibody (A-21445, Invitrogen) for 30 min at 4° C. in the dark. After a second wash, the cells were tested by high throughput flow cytometry (IQue screener, Sartorius). Data were transferred to Excel and graphs were generated using GraphPad Prism® software.

The target in experiment [6] is T2, I225M. Description: flow cytometry, CHO-S cells transiently transfected with NKG2A variant and CD94, AF647 goat anti-human IgG secondary (MFI) [cont.), panel 24135]. The procedure: as §2
Experiment [7] concerns the target T4, human NKG2A and human CD94 expressed on …. The experiment is described as above. The procedure: as §2
For experiment [8], the target named is T5, recombinant human NKG2C/CD94 heterodimer (extracellular domains) (human, UniProt P26717 94-231; Q13241 32-179).
T5 construct: extracellular domain; also called HuNKG2C/huCD94; NKG2C/CD94 ECDs
Description: SPR (IBIS MX96), mAb captured on anti-human IgG Fc, ECD heterodimer injected, 1:1 fit. As for the experimental part: as §3

Experiment [9] concerns the target T6, recombinant human NKG2A/CD94 heterodimer (extracellular domains) (human, UniProt Q13241 32-179).
T6 construct: extracellular domain; ECDs co-expressed in Expi293, purified by Ni-NTA and anti-Flag; also called HuNKG2A/huCD94; NKG2A/CD94 ECDs
The description is as above. The procedure:
as §3

The target in experiment [10] is T4, human NKG2A and human CD94 expressed on …. Description: blocking of PE-conjugated HLA-E pentamer binding to transiently transfected CHO-S cells, flow cytometry (percentage binding) [panel A hNKG2A]. The procedure: as §1
Experiment [11] concerns the target T2, I225M. Description: flow cytometry, CHO-S cells transiently transfected with NKG2A variant and CD94, AF647 goat anti-human IgG secondary (MFI) [cont.), panel 23765]. As for the experimental part: as §2
Experiment [12] has as its target T7, I168S (Homo sapiens).
T7 construct: co-expressed on CHO-S cells; also called human NKG2A I168S / human CD94 heterodimer on CHO-S cells
Described as above. As for the experimental part:
as §2

The target of experiment [13] is T4, human NKG2A and human CD94 expressed on …. The description is as above. The procedure: as §2
Experiment [14] deals with T1, cynomolgus NKG2A and cynomolgus CD94 …. The experiment is described as follows: flow cytometry, transiently transfected CHO-S cells, AF647 goat anti-human IgG secondary (MFI) [cont.), panel 23765]. The procedure: as §4
For experiment [15], the target named is T4, human NKG2A and human CD94 expressed on …. The description is as above. The procedure:
as §4

Substitutions are numbered along the chain they refer to. In names and notes the source's numbering stands.

T2 sequence (P26715 whole entry I225M): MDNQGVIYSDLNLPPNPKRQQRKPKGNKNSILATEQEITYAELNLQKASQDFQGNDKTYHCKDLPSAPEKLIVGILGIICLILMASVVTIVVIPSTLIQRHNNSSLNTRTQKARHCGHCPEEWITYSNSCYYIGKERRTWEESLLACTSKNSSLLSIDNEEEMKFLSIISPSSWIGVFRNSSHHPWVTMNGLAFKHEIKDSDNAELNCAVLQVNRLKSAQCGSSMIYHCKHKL
NKG2A on primary human NK cells, sequence (P26715 whole entry): as the sequence (P26715 whole entry I225M) above, with M225I counted along it
T7 sequence (P26715 whole entry I168S): as the sequence (P26715 whole entry I225M) above, with I168S, M225I counted along it

B1: antibody 24208 (antibody, human IgG1, kappa, L234A L235A, V domains shown)
VH: QVQLVESGGGLVKPGGSLRLSCAASGFTFSDYYMRWIRQAPGKGLEWVSHISTSGSTIYYADSVKGRFTISRDNAKNSLYLQMNSLRAEDTAVYYCARDHYYSRGVIGYWGQGTLVTVSS
VL: DIQMTQSPSSVSASVGDRVTITCRASQGISSWLAWYQQKPGKAPKLLIYAASSLQSGVPSRFSGSGSGTDFTLTISSLQPEDFATYYCQQANSFPYTFGQGTKLEIKR
notes: Fully human IgG1-LALA (L234A/L235A), kappa; also called mAb 24208; 24208 (IgG1 LALA)
A word on the EC50 (read off the curve): it is the concentration at which the effect is half-maximal. Low values mean greater potency, high ones weaker potency. Take B1: the values for the binding result in experiment [1] and in experiment [3] were “no binding (tested: 10000 ng/ml)” and “no binding”, respectively. Moreover, the “EC50 (read off the curve)” value in experiment [2] was roughly 0.004 µg/mL. Further, the “EC50 (ug/mL) of induced NK cell cytotoxicity, median (n = 19)” value in experiment [4] turned out to be 0.19 µg/mL.

B2: BMS-NKG2A.9 (antibody, human IgG1, kappa, V domains shown)
VH: EVQLVESGGGLVKPGGSLRLSCAASGFTFSSHSMNWVRQAPGKGLEWVSAISSSSSYIYYADSVKGRFTISRDNAKNSLYLQMNSLRAEDTAVYYCAREEWGLPFDYWGQGTLVTVSS
VL: B1 VL with D1A, M4L, V11L, W32A, A50D, Q55K, A91F, F94Y, Y96L, K103R
On to B2, for which the “EC50 (ug/mL) of induced NK cell cytotoxicity, median (n = 7)” value in [4] was 1.07 µg/mL.

B3: antibody 24135 (antibody, human IgG1, kappa, L234A L235A, V domains shown)
VH: QVQLQESGPGLVKPSETLSLTCTVSGGSVSSGHYYWSWIRQPPGKGLEWIGYIYYSGSTTYNPSLKSRVSISVDTSKHQFSLKLSSVTAADTAVYYCARWAGSYQPYYYYYGMDVWGQGTTVTVSS
VL: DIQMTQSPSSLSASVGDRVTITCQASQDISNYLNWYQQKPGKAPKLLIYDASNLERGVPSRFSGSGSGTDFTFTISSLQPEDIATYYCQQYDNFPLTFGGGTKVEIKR
notes: Fully human IgG1-LALA (L234A/L235A), kappa; also called mAb 24135
Usually Kd stands for the constant that tells how readily two partners part at equilibrium. The koff is the first-order rate constant of dissociation. For orientation: kon means the rate constant with which the complex forms. In the case of B3, the binding result in experiment [1] is “no binding (tested: 10000 ng/ml)”; in [3], “no binding”. Also, the results for the “EC50 (read off the curve)” value in experiment [5], in [6] and in experiment [7] were roughly 0.02 µg/mL, roughly 0.006 µg/mL and roughly 0.005 µg/mL, respectively. Besides, the Kd in [8] came to 147 nM; in [9] it was 3.7 nM. In addition, the figures for the koff in experiment [8] and in experiment [9] were 0.00098 s⁻¹ and 0.0013 s⁻¹, respectively. For the same molecule, the figures for the kon in experiment [8] and in [9] were 6700 M⁻¹ s⁻¹ and 340000 M⁻¹ s⁻¹, respectively.

B4: BMS-NKG2A.11 (antibody, human IgG1, kappa, V domains shown)
VH: B2 VH
VL: AIQLTQSPSSLSASVGDRVTITCRASQGIPSALAWYQQKPGKAPKLLIYDASSLKSGVPSRFSGSGSGTDFTLTISSLQPEDFATYYCQQFNSYPLTFGQGTRLEIKR
Turning to B4, the “EC50 (ug/mL) of induced NK cell cytotoxicity, median (n = 6)” value in experiment [4] was 0.71 µg/mL.

B5: antibody 23765 (antibody, human IgG1, kappa, L234A L235A, V domains shown)
VH: B2 VH with S31C, H32C, S33R, A50S, E99D, E100G, G102N, L103D, P104V
VL: EIVLTQSPATLSLSPGERATLSCRASQSVSSYLAWYQQKPGQAPRLLIYDASNRATGIPARFSGSGSGTDFTLTISSLEPEDFAVYYCQQRSNWPLTFGGGTKVEIKR
notes: Fully human IgG1-LALA (L234A/L235A), kappa
Regarding B5, the “IC50 (read off the curve)” value in experiment [10] was roughly 0.6 µg/mL. For the same molecule, the “EC50 (read off the curve)” value in [11] was roughly 0.01 µg/mL; in [12], roughly 0.01 µg/mL; in experiment [13], roughly 0.01 µg/mL; in experiment [14], roughly 0.02 µg/mL; in experiment [15] it was roughly 0.04 µg/mL. Moreover, the Kd in experiment [8] was determined as 717 nM; in experiment [9], 15 nM. The koff in [8] was 0.00156 s⁻¹; in [9], 0.0013 s⁻¹. The kon in experiment [8] is 2180 M⁻¹ s⁻¹; in experiment [9] it was 88000 M⁻¹ s⁻¹.
